Assay results from publication doi:10.1101/2025.03.01.640934 (bioRxiv, 2025).

Target: the molecule itself
Assay: native MS

B1: recombinant DK fragment (DUF3669 and KRAB domains; residues 1-191) of ZNF746 (domain or fragment)
chain: not shown
- stoichiometry N: 3
